Experimental data taken from patent US20250333441A1, “POLYPEPTIDE INHIBITORS AND USES THEREOF” (Neuracle Science Co., Ltd., priority 2021, published 2025).
Where a SMILES comes first, the peptide text is derived from it. Where no end group is shown, it is not given here. [ ]: non-standard residue; d: D form.

What was measured:
[1] = molecular target: complex of human LRRC4B protein (hFc-fused) and recombinant FAM19A5 protein (Homo sapiens, UniProt Q7Z5A7); assay: Competitive inhibition assay (IC50), plate coated with LRRC4B(453-576, TT/TT)-hFc; assay type: binding; settings: hFc-fused hLRRC4B; from IC50 of Table 14
Procedure: The in silico analysis provided in Example 9 highlighted that certain T12 and L13 double mutants might be important in improving the binding affinity of the polypeptides of the present disclosure to the FAM19A5 protein. Therefore, the ability of both the wild-type FB-21 peptide (which is the same as the FB-20 peptide described herein except that the FB-21 peptide additionally contains an alanine at the C-terminus) and several FB-21 mutants were tested for their inhibitor effect on hFc-fused hLRRC4B and FAM19A5 complex formation. Briefly, plate was coated with 100 nM of LRRC4B(453-576, TT/TT)-hFc and then 1 ng/mL of rFAM19A5 was incubated at 37° C. in the presence of increasing concentrations of the different FB-21 peptide fragments (0.03, 0.1, 0.3, 1, 3, 10, 30, 100, 300 and 1000 nM). The LRRC4B-bound FAM19A5 levels were measured using HRP-conjugated 1-65 antibody.

[2] = molecular target: complex of His-TEV LRRC4B and recombinant FAM19A5 protein (Homo sapiens, UniProt Q7Z5A7); assay: Competitive inhibition assay (IC50), plate coated with His-TEV LRRC4B; assay type: binding; settings: FIG. 22C; d-form peptides; methods as for Table 15
Procedure: To further assess the inhibitory effect of the FB-21 mutants, the ability of additional FB-21 mutants described in Example 9 were tested for their ability to inhibit the interaction between FAM19A5 protein and LRRC4B protein. Briefly, plates were coated with 100 nM of His-TEV LRRC4B and then 1 ng/mL of rFAM19A5 was incubated at 37° C. in the presence of increasing concentrations of the FB-21 peptide fragments (0.3, 1, 3, 10, 30, 100, 300, 1000, 3000 and 10000 nM). The LRRC4B-bound FAM19A5 levels were measured using HRP-conjugated 1-65 SS01 antibody. As shown in FIG. 22B (see Table 15 for IC50), most (if not all) of the FB-21 mutants had improved ability in inhibiting the interaction between LRRC4B and recombinant FAM19A5 protein.
Next, to assess whether other properties of the polypeptides described herein can be improved (e.g., solubility, prevention of degradation from protease and peptidase, and in vivo administration), the following additional FB-21 peptide mutants were constructed and tested for their ability to inhibit the interaction between FAM19A5 protein and LRRC4B: (1) d-form FB-21 peptide (“dFB-21”), (2) d-form FB-21 peptide with juxta-membrane (JM) sequence (“dFB-JM-31”), (3) d-form FB-21 peptide with BBB penetrating sequence at each end of the sequence (“dFB-BBB-39”), and (4) d-form FB-21 mutant peptide with DY replacement and additional JM sequence (“dFB-DY-JM31”). […]

[3] = test system: mouse hippocampal neurons treated with toxic amyloid beta oligomer; assay: Amyloid beta-induced synapse loss in primary hippocampal neurons; assay type: cell-based; settings: 6.6 nM; co-treated with toxic amyloid beta oligomer; 21 DIV
Procedure: Alzheimer's disease (AD) is tightly associated with the dysmetabolism of amyloid-R (A3). To begin assessing whether the polypeptides provided herein (i.e., comprising the FAM19A5 binding domain of LRRC4 protein family members) could have any therapeutic effects on AD, the effect of various FB-21 peptide fragments described herein on the deformation of synapse induced by toxic A3 oligomer and following structural recovery was assessed. Specifically, the following FB-21 peptide fragments were tested: FB-21, FB-JM-31 and FB-BBB-39 (see Example 10).
Aβ42 (#20276) peptide was purchased from AnaSpec (Fremont, USA). […]
Hippocampal neurons were treated with 6.6 nM FB-21, 6.6 nM of FB-13-JM and 6.6 nM of FB-13-BBBX2 at 14, 17 and 20 DIV to determine the level of synaptogenesis at 21 DIV by immunostaining SYP, a presynapse marker protein and PSD95, a postsynapse marker protein. To quantify fluorescence intensity for SYN and PSD95 and number of colocalized voxels between SYN and PSD95 signals, z-stack confocal images of 3 m in depth were converted to 3D images using IMARIS software (IMARIS9.0, Bitplane AG, Zurich, Switzerland). The “Surface tool” of the IMARIS software was used to exclude all the signals detected in neuronal cell bodies, and number of colocalized voxels between SYN and PSD95 signals in neurites were calculated using the “Coloc tool”. […]

[4] = molecular target: T1, FAM19A5 (isoform 2) - full-length LRRC4B protein complex (Homo sapiens, UniProt Q7Z5A7); assay: Immunofluorescence: dissociation of FAM19A5 from full-length LRRC4B in HEK293 cells; assay type: cell-based; settings: HEK293 cells expressing FAM19A5 isoform 2 and LRRC4B, treated 30 minutes
T1 construct: expressed in transfected cells; host or cells: HEK293
Procedure: Since LRRC4B protein fragments containing the binding domain described in Example 2 (e.g., LRRC4B (453-576); i.e., construct #11 in Table 6) was able to bind to FAM19A5 protein with high affinity, it was next assessed whether such protein fragments could compete with naturally existing LRRC4B protein for binding to FAM19A5 protein, and thereby, dissociate the FAM19A5-LRRC4 protein family complex. Briefly, HEK293 cells expressing both FAM19A5 isoform 2 and LRRC4B protein were treated (i.e., cultured in vitro) for 30 minutes with either LRRC4B (453-576)-hFc or mutant LRRC4B (453-576)-hFc (includes alanine substitutions at positions 488 and 489 of SEQ ID NO: 2; SEQ ID NO: 16) protein fragments. Then, the cells were immunostained with anti-FAM19A5 (1-65) and anti-LRRC4B antibodies to determine the expression of FAM19A5 and full-length LRRC4B proteins, respectively. The hFc-fused LRRC4B protein fragments were determined using an anti-hIgG antibody. The nuclei were stained with Hoechst 33342.

[5] = molecular target: binding of FAM19A5 protein to full-length ectodomain of the LRRC4B protein (amino acids 36-576)-hFc (Homo sapiens, UniProt Q7Z5A7); assay: Competitive inhibition assay, plate coated with full-length LRRC4B ectodomain; settings: 100 nM coated ectodomain; FAM19A5 5 ng/mL; increasing concentrations
Procedure: Next, to further assess the role that the binding domain of the LRRC4B protein has on the interaction between FAM19A5 protein and members of the LRRC4 protein family, a competitive inhibition assay was used to determine whether different LRRC4B deletion constructs from Example 2 could inhibit the binding of FAM19A5 to the full-length ectodomain of the LRRC4B protein (i.e., amino acids 36-576 of SEQ ID NO: 2; SEQ ID NO: 5). Briefly, 100 nM of the full-length ectodomain of the LRRC4B protein was used to coat a plate, and then recombinant FAM19A5 protein (5 ng/mL) was added to the plate in combination with the following LRRC4B deletion constructs (increasing concentrations): (1) LRRC4B (453-576) (i.e., construct #11 in Table 6); (2) LRRC4B (453-576) mutant (comprises alanine substitutions at positions 488 and 489 of SEQ ID NO: 2; SEQ ID NO: 16); (3) LRRC4B (484-576) (i.e., construct #12 in Table 6); (4) LRRC4B (482-576); (5) LRRC4B (482-497); and (6) LRRC4B (498-576). The plates were incubated at 37° C., and then, the amount of FAM19A5 bound to the coated LRRC4B ectodomain protein was measured using H1RP-conjugated anti-FAM19A5 (1-65) antibody. […]

[6] = molecular target: binding of FAM19A5 protein to full-length ectodomain of LRRC4 protein (Homo sapiens, UniProt Q7Z5A7); assay: Competitive inhibition assay, plate coated with full-length LRRC4 ectodomain; settings: 100 nM/well coated full-length LRRC4 ectodomain; FAM19A5 5 ng/mL
Procedure: (§1) As described in Example 3, there appeared to be much similarity in the binding domains of the different members of the LRRC4 family. […] Then, recombinant FAM19A5 protein (5 ng/mL) was added in combination with one of the following: (i) LRRC4B (484-576) protein fragment, (ii) LRRC4B (453-576, AA) protein fragment, and (iii) synthetic FB-20 peptide. The plates were incubated at 37° C., and then, the amount of FAM19A5 protein bound to the coated LRRC4, LRRC4B, or LRRC4C proteins was measured using anti-FAM19A5 (1-65) antibody.

[7] = molecular target: binding of FAM19A5 protein to full-length ectodomain of LRRC4C protein (Homo sapiens, UniProt Q7Z5A7); assay: Competitive inhibition assay, plate coated with full-length LRRC4C ectodomain; settings: 100 nM/well coated full-length LRRC4C ectodomain; FAM19A5 5 ng/mL
Procedure: as §1

FAM19A5 protein = FAM19A5 protein (Homo sapiens, UniProt Q7Z5A7); assay: competitive inhibition ELISA; competitor: coated LRRC4B(453-576, TT/TT)-hFc

T1 sequence (Q7Z5A7 1-125 isoform Q7Z5A7-2, one chain of several): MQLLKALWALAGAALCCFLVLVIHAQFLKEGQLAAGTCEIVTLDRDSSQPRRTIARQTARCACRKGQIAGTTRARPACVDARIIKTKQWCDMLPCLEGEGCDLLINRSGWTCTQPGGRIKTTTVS
Chain of complex of His-TEV LRRC4B and recombinant FAM19A5 protein (Q7Z5A7 44-132, one chain of several): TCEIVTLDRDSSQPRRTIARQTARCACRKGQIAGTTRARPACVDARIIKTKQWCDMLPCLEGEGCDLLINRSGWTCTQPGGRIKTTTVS
Chain of binding of FAM19A5 protein to full-length ectodomain of LRRC4 protein (Q7Z5A7 44-132): as the sequence (Q7Z5A7 44-132, one chain of several) above
Chain of binding of FAM19A5 protein to full-length ectodomain of LRRC4C protein (Q7Z5A7 44-132): as the sequence (Q7Z5A7 44-132, one chain of several) above
Chain of binding of FAM19A5 protein to full-length ectodomain of the LRRC4B protein (amino acids 36-576)-hFc (Q7Z5A7 44-132): as the sequence (Q7Z5A7 44-132, one chain of several) above
Chain of complex of human LRRC4B protein (hFc-fused) and recombinant FAM19A5 protein (Q7Z5A7 44-132, one chain of several): as above

CC(C)[C@H](NC(=O)[C@@H](NC(=O)[C@@H](NC(=O)[C@@H](NC(=O)[C@@H](NC(=O)[C@H](Cc1ccccc1)NC(=O)[C@H](Cc1ccc(O)cc1)NC(=O)[C@@H](NC(=O)[C@H](Cc1ccc(O)cc1)NC(=O)CN)[C@@H](C)O)[C@@H](C)O)[C@@H](C)O)C(C)C)[C@@H](C)O)C(=O)N[C@@H](CCC(=O)O)C(=O)N[C@@H](Cc1c[nH]c2ccccc12)C(=O)N[C@@H](Cc1ccc(O)cc1)C(=O)N[C@@H](CCC(=O)O)C(=O)N[C@H](C(=O)N[C@@H](CCC(N)=O)C(=O)N1CCC[C@H]1C(=O)NCC(=O)N[C@@H](CCC(=O)O)C(=O)N[C@@H](CCC(=O)O)C(=O)N[C@@H](C)C(=O)O)[C@@H](C)O [FB-21 (W12Y13)] (H-GYTYFTTVTVEWYETQPGEEA-OH; N-terminus and C-terminus assumed)
increase in ability to dissociate the LRRC4B-FAM19A5 complex compared with wild-type FB-21 [1]: 2.9 fold

nYTYFTTVTVEDYETQPGEEALDEVMKTTKa ([dN]YTYFTTVTVEDYETQPGEEALDEVMKTTK[dA]; also: terminal modifications) [dFB-DY-JM31]
more effective in inhibiting complex formation compared to the wild-type FB-21 [2]: 4 fold

nYTYFTTVTVETLETQPGEEALDEVMKTTKa ([dN]YTYFTTVTVETLETQPGEEALDEVMKTTK[dA]; also: terminal modifications) [dFB-JM-31]
colocalized voxels for PSD95 and synaptophysin [3]: significant increase

B1: LRRC4B mutant: LRRC4B (453-576) with alanine substitutions at positions 488 and 489 of SEQ ID NO: 2 (SEQ ID NO: 16) (protein)
chain: VSAVDPVAAGGTGSGGGGPGGSGGVGGGSGGYTYFAAVTVETLETQPGEEALQPRGTEKEPPGPTTDGVWGGGRPGDAAGPASSSTTAPAPRSSRPTEKAFTVPITDVTENALKDLDDVMKTTK
modifications: human Fc fusion in use
dissociation of FAM19A5 from full-length LRRC4B protein [4]: FAM19A5 protein remained largely bound
inhibition of FAM19A5 binding to coated full-length LRRC4B ectodomain protein [5]: much inferior in their ability to inhibit the interaction
inhibition of FAM19A5 binding to coated LRRC4 protein [6]: minimal effect
inhibition of FAM19A5 binding to coated LRRC4C protein [7]: minimal effect

B2: FB-21 (W12Y13) (peptide)
peptide: GYTYFTTVTVEWYETQPGEEA
fold increase in ability to dissociate the LRRC4B-FAM19A5 complex, against wild-type FB-21 (FAM19A5 protein): 2.9 fold
